Reference: article PMC7736860

Columns and labels:
Experiment in all cases: EMSA
Settings in all cases: Chemiluminescent EMSA kit (Beyotime); buffer, salt, pH and temperature not stated
[1] = biological target: T1, BTF3 (Arabidopsis thaliana) (UniProt Q9SMW7)
T1 sequence: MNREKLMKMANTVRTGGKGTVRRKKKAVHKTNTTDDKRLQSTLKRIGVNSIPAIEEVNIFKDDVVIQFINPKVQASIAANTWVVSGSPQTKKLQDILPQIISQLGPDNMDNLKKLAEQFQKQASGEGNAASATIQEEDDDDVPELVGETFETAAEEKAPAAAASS

[2] = biological target: T2, bHLH106 (Arabidopsis thaliana) (UniProt O80674)
T2 sequence: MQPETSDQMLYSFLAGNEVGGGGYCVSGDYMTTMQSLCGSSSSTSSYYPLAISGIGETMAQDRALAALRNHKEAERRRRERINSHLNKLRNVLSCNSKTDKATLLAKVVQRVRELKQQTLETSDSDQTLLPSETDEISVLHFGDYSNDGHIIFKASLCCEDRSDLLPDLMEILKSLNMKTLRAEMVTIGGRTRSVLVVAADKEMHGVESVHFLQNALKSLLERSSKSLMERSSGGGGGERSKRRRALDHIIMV

[3] = biological target: T3, TEM1 (TEMPRANILLO1) (Arabidopsis thaliana) (UniProt Q9C6M5)
T3 sequence: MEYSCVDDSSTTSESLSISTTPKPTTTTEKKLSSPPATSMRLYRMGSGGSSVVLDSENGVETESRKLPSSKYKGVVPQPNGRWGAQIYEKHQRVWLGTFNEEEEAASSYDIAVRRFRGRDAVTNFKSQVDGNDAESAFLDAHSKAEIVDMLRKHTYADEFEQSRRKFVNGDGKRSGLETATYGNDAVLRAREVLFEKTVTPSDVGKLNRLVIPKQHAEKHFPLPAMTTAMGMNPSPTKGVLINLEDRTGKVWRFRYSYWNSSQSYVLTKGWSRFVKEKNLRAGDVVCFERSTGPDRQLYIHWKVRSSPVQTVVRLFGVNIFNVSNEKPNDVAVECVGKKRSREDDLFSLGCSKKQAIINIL

[4] = biological target: T4, HAT1 (Arabidopsis thaliana) (UniProt P46600)
T4 sequence: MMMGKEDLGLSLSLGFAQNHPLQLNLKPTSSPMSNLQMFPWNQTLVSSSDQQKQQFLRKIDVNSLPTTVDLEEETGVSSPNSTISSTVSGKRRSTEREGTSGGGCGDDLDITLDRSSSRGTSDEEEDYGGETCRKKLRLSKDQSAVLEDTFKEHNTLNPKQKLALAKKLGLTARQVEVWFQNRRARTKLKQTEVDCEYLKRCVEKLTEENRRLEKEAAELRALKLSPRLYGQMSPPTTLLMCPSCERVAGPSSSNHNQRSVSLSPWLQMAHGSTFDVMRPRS

[5] = biological target: T5, bZIP1664 (Arabidopsis thaliana) (UniProt F4I978)
T5 sequence: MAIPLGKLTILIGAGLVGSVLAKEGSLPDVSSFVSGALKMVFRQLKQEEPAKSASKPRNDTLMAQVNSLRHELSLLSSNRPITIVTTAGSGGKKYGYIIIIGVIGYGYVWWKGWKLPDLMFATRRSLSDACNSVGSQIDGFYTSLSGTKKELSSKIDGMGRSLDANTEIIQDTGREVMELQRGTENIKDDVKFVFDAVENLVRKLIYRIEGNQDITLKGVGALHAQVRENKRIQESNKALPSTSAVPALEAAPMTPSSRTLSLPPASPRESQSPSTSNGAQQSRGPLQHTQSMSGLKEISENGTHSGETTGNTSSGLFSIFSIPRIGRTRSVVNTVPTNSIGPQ

Measured: binding

GTGAAACAGCGTGTGTTATGCACAATAATGGATTCCCGAAGTGGAAGGGTACATTTGTCCTTTCGAGATCAATTTCTCGATACAGTAAAAATGGGCCATTGTTGTTTACTTTTCCTTGGTGTTAAAACAATAATGTAGTGCCCCCACTTAGATATTTTTTTGCTAGGTTTTGGCTCCAACCCAAGAAAAATTCGTTCGGTGACTAATAATAATCGCTGACCCCGA (double strand)
binds: [1] | [2] | [3] | [4] | [5]
